Measurements taken from patent US20260028402A1.

Target: HuCD100-His (human) (UniProt Q92854)
Assay: cell-based or functional assay

B1: Pepinemab (antibody, INN chains, looked up, V domains shown)
VH: QVQLVQSGAEVKKPGSSVKVSCKASGYSFSDYYMHWVRQAPGQGLEWMGQINPTTGGASYNQKFKGKATITVDKSTSTAYMELSSLRSEDTAVYYCARYYYGRHFDVWGQGTTVTVSS
VL: DIVMTQSPDSLAVSLGERATINCKASQSVDYDGDSYMNWYQQKPGQPPKLLIYAASNLESGVPDRFSGSGSGTDFTLTISSLQAEDVAVYYCQQSNEDPYTFGQGTKLEIK
modifications: IgG4
B1 was tested, and the MDSC proportion (%) at 2.821 nM antibody was 27.1%, the MDSC proportion (%) at 8.463 nM antibody was 16.3% and the MDSC proportion (%) at 25.389 nM antibody was 8.29%. For the same binder, the MDSC proportion (%) at 76.166 nM antibody was 6.92%, the MDSC proportion (%) at 228.498 nM antibody was 6.97% and the MDSC proportion (%) at 685.495 nM antibody was 10.3%.
